Reference: PMC11052181, “The Post-Transcriptional Regulatory Protein CsrA Amplifies Its Targetome through Direct Interactions with Stress-Response Regulatory Hubs: The EvgA and AcnA Cases”
Where a chain is given by its changes, count along the chain named.

Assays:
Details in all cases: protein: recombinant; chain copies: 2; label: 5'-32P
[1] = target: T1, CsrA (Escherichia coli, UniProt P69913 1-61); experiment: EMSA; excess yeast total RNA; 0.5 nM 32P-RNA, 0-300 nM CsrA, 30 min, excess yeast total RNA; 10% native PAGE, 0.5x TBE, 4 C, 170 V; binding buffer, pH and temperature not stated (as in refs)
[2] = target: T1, CsrA; experiment: as above; remark: listed apart in the source
[3] = target: T1, CsrA; experiment: EMSA; excess yeast total RNA; reduced curve amplitude; 0.5 nM 32P-RNA, 0-300 nM CsrA, 30 min, excess yeast total RNA; 10% native PAGE, 0.5x TBE, 4 C, 170 V; binding buffer, pH and temperature not stated (as in refs)
[4] = target: T1, CsrA; experiment: EMSA; excess yeast total RNA; 0.5 nM 32P-RNA, 0-300 nM CsrA, 30 min, excess yeast total RNA; 10% native PAGE, 0.5x TBE, 4 C, 170 V; binding buffer, pH and temperature not stated (as in refs); remark: listed apart in the source

T1 sequence (P69913 whole entry): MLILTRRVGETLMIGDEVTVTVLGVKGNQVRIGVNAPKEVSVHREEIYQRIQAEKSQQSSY

B1: acnA leader WT (T7-acnA-WT) (structured_RNA)
RNA: GGGAUAAUUCACCCUGAAGAGAAUCAGGGCUUCGCAACCCUGUCAUUAAGGAGGAGCUAUGUCGUCAACCCUACGAGAAGCCAGUAAGGACACGUUGCAGGCCAAAGAUAAAACUUACCACUACUACAGCCUGCCGCUUGCUGCUAAAUCACUGGGCG
Kd [1]: ~90.9 nM

B2: acnA PBS-I & PBS-III double mutant (dm-1&3) (structured_RNA)
RNA: B1 RNA with G50C, G51C, G53C, G54C, C63G, A104U, G107C, A108U
binding signal [2]: ~2 fold increase in Kd vs WT

B3: acnA PBS-III mutant (mut3, AAAGAU to UAACUU) (structured_RNA)
RNA: B1 RNA with A104U, G107C, A108U
binding signal [2]: ~1.6 fold increase in Kd vs WT

B4: acnA PBS-I mutant (mut1, GGAGGA to CCACCA) (structured_RNA)
RNA: B1 RNA with G50C, G51C, G53C, G54C, C63G
binding signal [2]: ~1.7 fold increase in Kd vs WT

B5: evgA leader WT (T7-evgA-WT) (structured_RNA)
RNA: GGGAUAAUUACUUGUCGAAUUAUCUUAAAGGAAGCUCAGAUUUUCUUAUUUUUAUUGAGAAAAUGAGAUGACGCCUUAUGUCUGUAUUACUACAGGGAGAAGGGAGAUGCUUCAUUGCAAAGGGAAUAAUCUAUGAACGCAAUAAUUAUUGAUGACCAUCCUCUUGCUAUCGCAGCAAUUCGUAAUUUAUUGAUCAAAAACGAUAUUGAAAUCUUAGCAGAGUUGACUGAAG
Kd [1]: ~83.7 nM

B6: evgA no GGAs mutant (structured_RNA)
RNA: B5 RNA with U25G, G30C, C74G, G96A, G103C, G122A, A125G, A126G
binding signal [3]: ~2.8 fold increase in Kd vs WT

B7: evgA all pred. sites mutant (PBS-I + PBS-II) (structured_RNA)
RNA: B5 RNA with A22U, U25G, G30C, G65A, G70C, G139C, A141U
binding signal [4]: ~1.2 fold increase in Kd vs WT

B8: evgA GGA4 mutant (AGGGAA to AAGGGG) (structured_RNA)
RNA: B5 RNA with G122A, A125G, A126G
binding signal [4]: ~2 fold increase in Kd vs WT

B9: evgA GGA2 mutant (GGA to AGA) (structured_RNA)
RNA: B5 RNA with G96A
binding signal [4]: ~1.6 fold increase in Kd vs WT
